Experimental data as given in patent US20120277164A1 (IMPERIAL INNOVATIONS, published 2012).

T1: Gadd45β/MKK7 complex (biotin-hGadd45β with coated GST-MKK7, ELISA format) (human, UniProt O75293 1-160; O14733 1-419, biotinylated (sites not given))
T1 construct: not shown: glutathione S-transferase (GST) fusion partner
T1 sequence (looked up) 1: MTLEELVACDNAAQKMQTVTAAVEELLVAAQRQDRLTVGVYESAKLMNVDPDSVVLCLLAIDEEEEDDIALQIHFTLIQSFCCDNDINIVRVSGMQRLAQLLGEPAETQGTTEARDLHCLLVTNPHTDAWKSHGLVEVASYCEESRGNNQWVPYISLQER
T1 sequence (looked up) 2: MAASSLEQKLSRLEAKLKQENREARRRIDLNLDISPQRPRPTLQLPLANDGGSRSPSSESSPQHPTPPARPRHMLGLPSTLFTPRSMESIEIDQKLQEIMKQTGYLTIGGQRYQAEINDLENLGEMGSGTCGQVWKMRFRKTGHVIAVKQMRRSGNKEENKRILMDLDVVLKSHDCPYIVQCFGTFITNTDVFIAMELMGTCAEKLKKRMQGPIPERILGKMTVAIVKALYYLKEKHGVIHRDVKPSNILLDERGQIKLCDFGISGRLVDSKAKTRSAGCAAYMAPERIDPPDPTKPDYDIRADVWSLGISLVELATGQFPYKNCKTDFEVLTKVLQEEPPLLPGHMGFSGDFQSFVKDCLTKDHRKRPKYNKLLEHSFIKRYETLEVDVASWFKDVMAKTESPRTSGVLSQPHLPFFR

T2: MKK7KD (constitutively active kinase domain of MKK7, residues 101 to 405, S287D and T291D, His6 fusion) (UniProt O14733-3 101-405)
T2 construct: range 101-405; also called MKKKD; not shown: His6 tag
T2 sequence (looked up): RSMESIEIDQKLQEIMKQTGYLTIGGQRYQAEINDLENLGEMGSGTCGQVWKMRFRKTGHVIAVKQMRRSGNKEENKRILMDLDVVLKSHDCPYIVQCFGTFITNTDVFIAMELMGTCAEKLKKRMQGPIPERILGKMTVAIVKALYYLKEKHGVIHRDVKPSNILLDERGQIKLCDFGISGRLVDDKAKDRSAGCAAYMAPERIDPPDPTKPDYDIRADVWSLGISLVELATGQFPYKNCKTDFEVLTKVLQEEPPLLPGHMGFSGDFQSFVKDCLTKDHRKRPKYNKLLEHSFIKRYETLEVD


Key:
[1] = biological target: T1, Gadd45β/MKK7 complex (biotin-hGadd45β …); assay: competition ELISA; coated GST-MKK7, biotin-hGadd45β; single dose
[2] = biological target: T1, Gadd45β/MKK7 complex (biotin-hGadd45β …); assay: ELISA competition: coated GST-MKK7 (42 nM), soluble biotin-hGadd45β (21 nM), increasing peptide; read-out % binding of biotin-hGadd45β to MKK7
[3] = biological target: T2, MKK7KD (constitutively active kinase …); assay: SPR (Biacore 3000), Gadd45β immobilized, MKK7KD injected at 1-25 nM
Description: On another channel the same procedure of activation with EDC/NHS and inactivation with ethanolamine was performed.

[4] = biological target: T2, MKK7KD (constitutively active kinase …); assay: SPR (Biacore 3000), MKK7KD immobilized, Gadd45β injected at 20-200 nM

Row | Binder | % Inhibition of Gadd45β-MKK7 binding [1] [%] | IC50 [2] [nM] | Kd [3] [nM] | Kd [4] [nM]
1 | Ac-YERF-NH2 (also called Ac-LTP2; LTP2) [Ac-YERF-NH2] | 93 | 0.4 | – | –
2 | Full length human Gadd45β (other, UniProt O75293 1-160, looked up, also called Gadd45β (SPR)) MTLEELVACDNAAQKMQTVTAAVEELLVAAQRQDRLTVGVYESAKLMNVDPDSVVLCLLAIDEEEEDDIALQIHFTLIQSFCCDNDINIVRVSGMQRLAQLLGEPAETQGTTEARDLHCLLVTNPHTDAWKSHGLVEVASYCEESRGNNQWVPYISLQER | – | – | 3.4 | 4
3 | Ac-YDHF-NH2 (also called Ac-LTP1; LTP1) [Ac-YDHF-NH2] | 94 | 0.4 | – | –
